Experimental data: the supplement of paper PMC10724198
± gives the standard deviation of the averaged measurements.

Tests used:
[1] = tested on: Saccharomyces cerevisiae; test: protein stability index of tFT-peptide fusion (C-terminal peptide) (PSI (0-1 scale)); higher = more stable (slower turnover); details: genetic background: wild type; temperature: 30 C
[2] = tested on: Saccharomyces cerevisiae; test: as above
Procedure: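 MPS profiling in S. cerevisiae of the tFT-X12 degron library: putative degron peptides plus stable controls, 12 aa, fused to the C-terminus of a sfGFP-mCherry timer. Cells are FACS-sorted into 8 mCherry/sfGFP bins and deep-sequenced. PSI runs from 0 (unstable) to 1 (stable). Backgrounds are wild type, das1Δ and doa10Δ at 30 °C, and wild type, das1Δ, cdc34-1 and cdc53-1 at 37 °C; 2-3 technical replicates each.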

[3] = genetic background: cdc34-1, temperature: 37 C
[4] = genetic background: cdc53-1, temperature: 37 C
[5] = genetic background: das1 deletion, temperature: 30 C
[6] = genetic background: das1 deletion, temperature: 37 C
[7] = genetic background: doa10 deletion, temperature: 30 C
[8] = genetic background: wild type, temperature: 30 C
[9] = genetic background: wild type, temperature: 37 C
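Note: PSI is a weighted mean of sequencing reads over stability bins, variants kept only with over 10 reads, mCherry proximal and sfGFP distal, peptide attached via GGGS linker.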

| Sequence | protein stability index [1] | protein stability index [2, 3] | protein stability index [2, 4] | protein stability index [2, 5] | protein stability index [2, 6] | protein stability index [2, 7] | protein stability index [2, 8] | protein stability index [2, 9] |
| --- | --- | --- | --- | --- | --- | --- | --- | --- |
| FGEDFCHLLWCC | 0.442 ± 0.014 | 0.623 ± 0.033 | 0.713 ± 0.021 | 0.583 ± 0.026 | 0.725 ± 0.011 | 0.347 ± 0.0051 | 0.374 ± 0.027 | 0.542 ± 0.018 |
| FGFSFLHLFIFF | 0.399 ± 0.035 | 0.429 ± 0.051 | 0.395 ± 0.028 | 0.375 ± 0.033 | 0.519 ± 0.03 | 0.443 ± 0.011 | 0.313 ± 0.038 | 0.457 ± 0.013 |
| FGGICFAVLLCR | 0.343 ± 0.013 | 0.246 ± 0.016 | 0.262 ± 0.0027 | 0.263 ± 0.035 | 0.3926 ± 0.0036 | 0.258 ± 0.0034 | 0.244 ± 0.0097 | 0.357 ± 0.021 |
| FHICTQLIFITC | 0.192 ± 0.025 | 0.06103 ± 0.00047 | 0.0651 ± 0.015 | 0.146 ± 0.029 | 0.198 ± 0.0078 | 0.114 ± 0.0037 | 0.127 ± 0.0084 | 0.145 ± 0.0024 |
| FILCGFSVVLIG | 0.255 ± 0.12 | 0.153 ± 0.033 | 0.245 ± 0.0032 | 0.191 ± 0.036 | 0.395 ± 0.016 | 0.162 ± 0.019 | 0.184 ± 0.048 | 0.372 ± 0.014 |
| FILLIFLSLLSP | 0.3211 ± 0.0026 | 0.352 ± 0.0047 | 0.416 ± 0.024 | 0.294 ± 0.029 | 0.454 ± 0.01 | 0.26 ± 0.0071 | 0.281 ± 0.043 | 0.427 ± 0.016 |
| FIPPRTYCLMIG | 0.323 ± 0.024 | 0.57632 ± 0.00037 | 0.682 ± 0.0096 | 0.58 ± 0.0063 | 0.693 ± 0.011 | 0.219 ± 0.0046 | 0.233 ± 0.026 | 0.297 ± 0.015 |
| FIRLFLVSFFIS | 0.31 ± 0.089 | 0.405 ± 0.048 | 0.451 ± 0.027 | 0.375 ± 0.019 | 0.567 ± 0.032 | 0.174 ± 0.013 | 0.189 ± 0.022 | 0.298 ± 0.0093 |
| FLACYSSFLFVS | 0.149 ± 0.03 | 0.417 ± 0.034 | 0.576 ± 0.011 | 0.4917 ± 0.0018 | 0.587 ± 0.0092 | 0.0703 ± 0.024 | 0.0895 ± 0.022 | 0.136 ± 0.0035 |
| FLCFFGGCFFLV | 0.468 ± 0.0077 | 0.581 ± 0.032 | 0.646 ± 0.06 | 0.523 ± 0.029 | 0.6462 ± 0.0016 | 0.4162 ± 0.0038 | 0.401 ± 0.025 | 0.5617 ± 0.0015 |
| FLCLLFYLSFFS | 0.415 ± 0.029 | 0.55 ± 0.018 | 0.5422 ± 4.9e-05 | 0.404 ± 0.028 | 0.572 ± 0.0078 | 0.378 ± 0.021 | 0.391 ± 0.021 | 0.5482 ± 0.0007 |
| FLFWVLLVGCSF | 0.304 ± 0.028 | 0.244 ± 0.0058 | 0.299 ± 0.012 | 0.245 ± 0.035 | 0.3748 ± 0.0029 | 0.206 ± 0.015 | 0.206 ± 0.021 | 0.334 ± 0.013 |
| FLGVFFYFLLCV | 0.379 ± 0.03 | 0.235 ± 0.02 | 0.2583 ± 0.002 | 0.254 ± 0.026 | 0.35871 ± 0.00032 | 0.2529 ± 0.0012 | 0.239 ± 0.013 | 0.326 ± 0.0064 |
| FLLAIVRGVWLA | 0.176 ± 0.014 | 0.15 ± 0.029 | 0.115 ± 0.0084 | 0.257 ± 0.034 | 0.339 ± 0.014 | 0.154 ± 0.01 | 0.104 ± 0.032 | 0.112 ± 0.0028 |
| FLPHLMCVFSFC | 0.382 ± 0.0022 | 0.456 ± 0.05 | 0.489 ± 0.01 | 0.394 ± 0.028 | 0.522 ± 0.0054 | 0.3324 ± 0.0015 | 0.334 ± 0.016 | 0.465 ± 0.0064 |
| FLVFRPPALFLR | 0.218 ± 0.18 | 0.0932 ± 0.018 | 0.0985 ± 0.0088 | 0.198 ± 0.024 | 0.268 ± 0.013 | 0.611 ± 0.01 | 0.22 ± 0.017 | 0.219 ± 0.0054 |
| FLVVCGLLSWVW | 0.348 ± 0.05 | 0.324 ± 0.00073 | 0.407 ± 0.029 | 0.263 ± 0.039 | 0.455 ± 0.015 | 0.232 ± 0.0053 | 0.28 ± 0.032 | 0.4291 ± 0.003 |
| FLVVSSVGFPLL | 0.467 ± 0.027 | 0.676 ± 0.017 | 0.73 ± 0.0085 | 0.626 ± 0.018 | 0.729 ± 0.027 | 0.618 ± 0.011 | 0.628 ± 0.014 | 0.714 ± 0.014 |
| FLWLCLLSLFFR | 0.481 ± 0.018 | 0.454 ± 0.069 | 0.383 ± 0.035 | 0.436 ± 0.018 | 0.548 ± 0.017 | 0.547 ± 0.01 | 0.434 ± 0.0099 | 0.498 ± 0.031 |
